This passage reports Ka results from patent US20040228836A1.

The target in this assay is intranuclear antigens consisting of histone DNA complexes (in fixed Raji cells). Put plainly: 125I-labeled MAb incubated with fixed Raji cells; Scatchard analysis of bound radioactivity.

On to “chimeric TNT-1 monoclonal antibody (chTNT-1)”, for which the Ka was determined as 2.5e+09 M⁻¹.
